From doi:10.1101/2022.10.21.513149, “Time-resolved cryo-EM using a combination of droplet microfluidics with on-demand jetting” (bioRxiv, 2022)

What was measured:
GroEL = target: T1, GroEL (Escherichia coli MG1655, UniProt P0A6F5 1-548); assay: cryo-EM structure; steady state continuous turnover reference, conventional plunger at around 20 s after the start of the reaction; GroEL (3.7 mg/ml) mixed with GroES (0.7 mg/ml), ATP (2 mM), CHAPS (0.1 %); 22 °C; fractions of complexes from 3D classification of particles; settings: both partners purified
T1 construct: GroEL of Escherichia coli MG1655; synthetic construct based on the GroEL gene, in a pET-15b vector; also called GroEL-ATP; GroEL-(ADP); source: E. coli BL21, purified (ammonium sulfate cuts, Source Q15 anion exchange, Superose gel filtration); copies: 14

[1] = target: the molecule itself; assay: as above

T1 sequence (P0A6F5 whole entry): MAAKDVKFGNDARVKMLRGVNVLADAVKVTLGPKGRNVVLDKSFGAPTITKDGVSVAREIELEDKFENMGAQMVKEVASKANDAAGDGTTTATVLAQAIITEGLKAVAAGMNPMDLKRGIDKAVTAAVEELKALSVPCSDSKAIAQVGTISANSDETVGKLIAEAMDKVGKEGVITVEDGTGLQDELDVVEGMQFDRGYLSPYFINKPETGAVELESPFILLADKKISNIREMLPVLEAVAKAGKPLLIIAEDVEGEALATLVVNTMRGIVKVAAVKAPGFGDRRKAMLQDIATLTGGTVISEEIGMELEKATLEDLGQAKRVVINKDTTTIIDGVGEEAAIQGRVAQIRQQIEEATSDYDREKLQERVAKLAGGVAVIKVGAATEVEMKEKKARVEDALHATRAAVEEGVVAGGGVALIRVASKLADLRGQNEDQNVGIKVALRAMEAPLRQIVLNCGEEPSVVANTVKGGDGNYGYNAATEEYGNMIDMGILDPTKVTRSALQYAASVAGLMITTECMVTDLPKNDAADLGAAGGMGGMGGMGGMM

stoichiometry N (GroEL): 2
B1: GroES (natural protein, Escherichia coli MG1655, UniProt P0A6F9 1-97, looked up)
chain: MNIRPLHDRVIVKRKEVETKSAGGIVLTGSAAAKSTRGEVLAVGNGRILENGEVKPLDVKVGDIVIFNDGYGVKSEKIDNEEVLIMSESDILAIVEA
notes: GroES of Escherichia coli MG1655; synthetic construct based on the GroES gene, in a pET-15b vector; source: E. coli BL21, purified (Source Q15 anion exchange, Superdex 200 gel filtration)
binding result [1]: binds
